B1: Type IV secretion system protein virB8 (Brucella suis biovar 1 (strain 1330)), Q7CEG3 (parent)
chain: MFGRKQSPQKSVKNGQGNAPSVYDEALNWEAAHVRLVEKSERRAWKIAGAFGTITVLLGIGIAGMLPLKQHVPYLVRVNAQTGAPDILTSLDEKSVSYDTVMDKYWLSQYVIARETYDWYTLQKDYETVGMLSSPSEGQSYASQFQGDKALDKQYGSNVRTSVTIVSIVPNGKGIGTVRFAKTTKRTNETGDGETTHWIATIGYQYVNPSLMSESARLTNPLGFNVTSYRVDPEMGVVQ
partner: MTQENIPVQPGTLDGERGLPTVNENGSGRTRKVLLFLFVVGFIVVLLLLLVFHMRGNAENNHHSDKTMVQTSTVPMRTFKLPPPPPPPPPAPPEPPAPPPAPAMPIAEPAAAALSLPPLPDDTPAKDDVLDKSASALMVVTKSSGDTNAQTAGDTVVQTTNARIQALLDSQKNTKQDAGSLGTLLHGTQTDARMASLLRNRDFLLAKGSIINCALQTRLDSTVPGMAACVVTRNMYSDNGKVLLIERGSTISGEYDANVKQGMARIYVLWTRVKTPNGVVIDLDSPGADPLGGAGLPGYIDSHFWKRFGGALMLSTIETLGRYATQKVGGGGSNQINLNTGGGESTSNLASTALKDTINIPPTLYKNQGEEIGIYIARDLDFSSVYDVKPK

Variants of B1 are the subject of this assay. To be noted: with virba_brusu virB10, Q9RPX5.
Consider T201A, for which the “effect of a mutation on the interaction” value is “decreasing interaction strength”.
Take T201Y: the “effect of a mutation on the interaction” value is reported as “decreasing interaction strength”.

The values above are taken from IntAct's records for PubMed 16648257.
